In publication PMC9275233, “Functional Characterization of a Regiospecific Sugar-O-Methyltransferase from Nocardia” (Applied and Environmental Microbiology, 2022):

Tests used:
[1] = test system: C[C@@H]1O[C@@H](Oc2ccc(O)c3c2C(=O)c2ccccc2C3=O)[C@H](O)[C@H](O)[C@H]1O; assay: HPLC methylation assay, nonlinear Michaelis-Menten fit; format: biochemical, Nocardia sp. CS682; conditions: 2 mM SAM (saturating), 2 mM MgCl2, 50 mM Tris-HCl pH 7.5, QR 5 to 200 μM
[2] = test system: C[S+](CC[C@H](N)C(=O)O)C[C@H]1O[C@@H](n2cnc3c(N)ncnc32)[C@H](O)[C@@H]1O; assay: as above; format: biochemical, Nocardia sp. CS682; conditions: 100 μM QR (near saturation), 2 mM MgCl2, 50 mM Tris-HCl pH 7.5, SAM 5 to 200 μM

Substance: ThnM1 (Nocardia sp. CS682)
- Km [1]: 11.70 ± 1.97 µM
- Km [2]: 32.7 ± 7.06 µM
